This is an account of results in a protein production outcome set (Wang et al. 2014).
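Further: failed if final PepcDB status was selected cloned or expressed and not failed if soluble or beyond.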

The nature of this data set: label from the status in PepcDB records.
“MHLSLALLVLLFSLILSNVINRIFPRLPLPLIQIIFGVGIGFLLKGEVFELETELFLAFIIAPLLFREGEESDITSILRNWKLILFLIFPVIFVSTLGIGYLAKAVLPASVPLSACLALGAALGPTDFVAYSAISKRFSFPKWISYILQGEGLLNDASGLVAFRVAVTALTTGSFSLLDASWNLVISVIGGFLVGLITALLNRLFLTILDNMDAADVTGALLLELVLPIPSYFVAEEIHVSGIIAVVVAGISLASRFKKITVFDAKLDSVSHTIWGTITFVLNGMVFFLLGTELPTLATPVLSSSTYDTLWMLLAIVLLTAIMFGIRFVMISAVFAQRAWRTKRSLKKIWKVATILTFSGVKGTVSIATILLLPVANMTALEHSLLTFTVAGVTLLSFLIGILILPRLATGPAHTTNHYMQIAILNDVVRELEKDLKQSANQGAVYATIDNYNQRLEDLILEQESNDVKEELANIRIMIMEIESEGLEYAYKKGKISELEYNLYQRYIKGLERRINRGFVSSLSYASAVFVLGLRRILHLAFTFKFRFEQEENRRGPQLTEENRDHMTELYLTNTEQVLEALSNLEGVYHSDLLSYLKRSRIREAEIIQSGAFVERVITHLNPDYVDEMLRGYFLERKIIIEYEQAGRISSRYAKQLRKEVNTLENYSLKETSNTLIYDMINLARRGA”: the protein production entry is on record as “failed”.

Turning to “MRSFLLGGVRPRDFWSMLKNLALRVDGEGAMDIGAWLRDQGLGQYEGTFRQNDIDPEVLRHLTAEDLIGVGVASVGHRRKLLAAIAALREVAEQPSGAAGFGATPVINPEAERRQLTVMFVDLVESTRLSSRLDPEEMGELLRGYQRAVAGAIARFEGHVAKYMGDGVLAYFGYPRAHEDEAERAVRAGLAAIDAVRKLQPPHGETLEARVGIATGLVVVGELIGEGAAREETVIGETPNLAARLQSVAEPGAVVVASATRQLIGGLFDLAELGFHPLKGFAASIPAWRVLGESSAESRFEAFHGASLTPLVGREHDIGLLLKRWEAVKKGKGRVVLLAGEPGIGKSRLVRALRRRLEGEPHTTVSHYCSPYHQTSPLYPVIRLLERAAGFAAEDPPEVKLSKLEALLTQSIEEVADAAPLLAALLSVPADDRYQPLELSPHRQKKRMLEVLVDQLIGLAARQPILAVYEDVHWADPTSLELLDLVVDRVQDSPVLVLITFRTEFLPPWTRYPHVTVLTLSRLSRRQGAEMVDRLTGRRALPTEVLDQIVAKTDGVPLFVEELTRAILETSLLKAEGDHYALARPLSAISIPATLHESLLARLDRLAPAREVMQVAAAIGREFSHELLVTAAPLQASEVEEALEDLIASGLVFRHGTPPQLTYSFKHALVRDAAYATLVRTKRQRLHAAIATAIEQRFPEMVQTQPELLAQHYAEAGRLEPAVNYWLRAGQAEIARSATTEAISHLTRGLELLEGLPDDAARLRKELELQVALSVALMTAKGWAAPEVGRANARARNLCERLGDKSRLFPVLYGDWVFHVVRAELEAGRKAGEELLRRAQEEREVSAEIVGNRIAGTGAFLRGEIANAREYLERSLALYDPQQHRALAFLFAQDPRVAGLSVLSLTLFALGYPEQAQARSNEALADARELSHSNTLGFALLYGCILSQLRGDWREARDRAGSLITLARAQGSPHFLGAGKILQGWTLGQTGELPAASTKVQEGLASWQMTGARFLVPYFLSLLARVETQSAGAKRALDLLTDALQRARETGERWFEAELHRLTGELMLQLPAFDRAEGEARLQHAVELARGQGADLWELRAATSLARLRIGQNRFGDVHHLLAPLCGKFAEGFATTDLQSAQRLLREAAGFDGAIKSSD”, the protein production result is recorded as “failed”.

On to “MSLRLADFGFTDGINEIIAITENEDGSWNAAPIGIIVEDSSSDTAKAKLYRNRTRANLERSGVLFANVTDDALVFAVSSFGNLNDDWYASPNPPIIKGAMAWCRFEAEMRSGVAHLKLTDGEIIEKRVRAINRGLSAVIEALVHATRYVAIKSDERRKELLERIHYYREIVQKCGSEREKRAFEIIMEKIGEGHHHHHH”, for which the protein production result is reported as “not failed”.

As for “MLIDKKTQAGVKSIIGWQHCAHFYRQNKLLGLFTKIKRPTKGQRMEEELKQQFDEMGVEPADAVLGRCAELAITYNIHDATEFVEQWMAFSLSHLQGEDPAIENLGDFERKVLQLRKDKAGYKATGQKAKSYGSPSVQDTSSLATYGVMEDDPMLDDYVSESAVDSSALHTPKAKKQSDRTANLKGAALFSPASYTPQSAKRKAGLETPSNSVAGKPGDIVDTFGHPKLLAGSSWQSQMEHTVPVTQKLLHNDAPLTIANLGYMNDLLTDRCHNLRVRFNQTGPALVDKKLGQAGAAECIWYPQDRQVLQSAGGLHAVGMIHSEDDGPLDAHSAFMAVLDDDVEDEMDPTLTLNFSRVKSASIFPGQVVLAKGFIPRGKTFMVEEIHTERKLTPATPLQIDRELQFVVASGPFTDSTDLFYEPLHDLLKYLKDHRPDVLVLTGPFLDADHKMVGELAETFDTFFEKMIGGIMESIGSHTAVLVVTSQKDAMALSVYPTPPPALRRTYPNLYMLPDPSLVDLDGFTLGVTSTDVVDHLLSHEFAVNAGERMHRAINHLFHQGSFYPLYPPADEDMAYDSQLALKYAQLKQLPNVLILPSDQRHFIRLVNDCLVINPGRVADKKGGTFARFLVAPSVPGKAANMFNSVACQVQRI”, the protein production result was “failed”.

Consider “MAGHSHWAQIKHKKAKVDAQRGKLFSKLIREIIVATRLGGPNPEFNPRLRTAIEQAKKANMPWENIERAIKKGAGELEGEQFEEVIYEGYAPGGVAVMVLATTDNRNRTTSEVRHVFTKHGGNLGASGCVSYLFERKGYIEVPAKEVSEEELLEKAIEVGAEDVQPGEEVHIIYTVPEELYEVKENLEKLGVPIEKAQITWKPISTVQINDEETAQKVIKLLNALEELDDVQQVIANFEIPEEILQKVG”, for which the protein production entry is recorded as “not failed”.

As for “MNFVTFQFVVFLVITVIVFMMMSPYYRKYFILLCSYFFYGTWSVPLISVILFSTSVDYYLGKKIHESHSQTHKKLYLTLSILVNCSILVYFKYMNFFISSIDAIGFSLGATQLLLNPMHIILPLGVSFYTFEAISYIVDIYRGEKPASSWLNYNFYIMYFPHLISGPIVRYKELHAQYESKIELPETSRLKEGFQLLLYGFIFKLVIADSMASISDPLFDKYQTIGHLESWLASIAFTIQIYFDFLGYTHIARGVSLFFNIKLPVNFNHPYNARNISEFWQRWHITLSLWIRDYLYIPLGGNRGRLYQTVNNLLITMFIAGLWHGASWNYAIWGTYHGCLLAVYHVFRFYYIKRNLQTENQLMKIGSIIMTYSLVVIGWVIFRSTSFEQAFTILGKMYDIPGFVQEFAMNQRASAYTDSLFYLVGMFALCFIGPTFKSIETKILSAVQPFWIKKWLYSLSIFTVLIFMFSPVKPFIYFVF”, the protein production entry is “failed”.

In the case of “MCAPKRGRSQQFITTVIVCWRMASFSFRIEVRLSDAERRPTMRQQLFSTLTVLVALVGLSRAVVAQPMAIATLTPPELQELQRLVPRSAEDYYNLGLMHQGRGDLAAAIDAFSQAIKLNPSADYYFARGLAYYDQGDMQRAIADFTTALGDDPQFIAAYYNRGMAYLALQNYDAAIADFDAALARDPQFVAAYYSRGMAHFDRGNVELAQRDYERARALNPAMTAQYYDRAPRPLTGGP”, the protein production result is “failed”.

On to “MELLRPEATVLSLGRRVLSFDREGRPYHYFREGKTYKRALDGSLHLRYREGERRRRRLAPEEALGVYQEVLDLAEAHLRDERRREEVLRWTPEGLLDPTPYRRAYAWPVSILPPDAYLSVVLQATTGCTWNRCAFCSFYQDRPFQKRTPEAFREHIQAVLALLGRGRLLRRGVFLADGNALALSEPLLPLLELVRAHFPGEPVMGFLDLFTGLKKAPSWWERLGGMGLRRVYIGLETGHAPLLALLRKPGHPKEVLPLVRALKAAGLSVGVILMVGAGGKAFAEAHFRESLALLAELPLGRGDVVYLSPFREDPGTPYAALGLAPLEDLEGELQRWAQAVRRLGLRASRYEIREFLY”, for which the protein production entry was “failed”.

For “MSQEQRMQKTFEVENHLGYRILRWVLLVALLSGILMSAVQVVLDAKRVSAELERDAAQTLAMVEDSATQAVFSIDDTLAQQVVDGLFALEPIHMAKITHPDGDELGDRLRPLQDSPFRPLTDPIFGQVREYRESLTRGSNPDLVYGYLEVHYDTAPYARTWLGRALVTFASGIALALILGIVLFVVFHLLLTRPLLRIVQSVKKVDPAHPDDRLVSIPEGHRADELGLWVNATNNLLVAIGDTQKKHREAEDRVTRLARYDTLTGLPSRDAFMEDLQGAIERAQEGHSSIALMVCGIDDFKSVNEQCGFRTGDTILQTVASRLTANLSSDRFNVARLGSDQFVIVEKHLRDGFQAAETAEKVLATIGSPINSGNHRISMTATLGISLFPSDADQADRLLQSAEQTMALAKQTGHNHFQFYVASIDKEIRERKQMEKDLAQALANHEFHLVYQPQINLETRRVIGAEALLRWEHPEHGMIPPDLFIPVAEANGSIVEIGQWVLDQACWQAARWASEGTHLRIAVNLSAVQLRQESIVDDILNTLKRHNIPAGRLELEVTETSFMTNLTDAVAKLHRLHRAGISIAVDDFGTGYSSLTYLKQMPVQHLKIDKQFIRDLLINEEDTRIANTIIDLGKSLNLTVVAEGVETAEQEYYLSQRGCALAQGYFFSKPLLPRDFANFVQTFHARIVENNA”, the protein production result is given as “failed”.

“NSVNCDELGPLPPGWEVRSTVSGRIYFVDHNNRTTQFTDPRLHHIMNHQCQLKEPSQPLPLPS”: the protein production entry is recorded as “failed”.

Take “RSKTVILAKNLPAGTLAAEIQETFSRFGSLGRVLLPEGGITAIVEFLEPLEARKAFRHLAYSKFHHVPLYLEWAPIGVFGAAPQKKDSQHEQPAEKAE”: the protein production entry is listed as “not failed”.

On to “MTETKPRIAIRYCTQCNWLLRAGWMAQEILQTFASDIGEVSLIPSTGGLFEITVDGTIIWERKRDGGFPGPKELKQRIRDLIDPERDLGHVDRTKHEGLDT”, for which the protein production entry is given as “not failed”.

In the case of “MHALPGIRTLFLGMPSSTRSPETAVPRILTSRTDVTERSEHNALMFGSPKERWDFYRREIQYDTSILANRTDAYLAAQSFLVIAFASSMSNLNPEWGGLFTLLVPPFLALLCILTTLNAWPGIRAAYDIIDQWYFKQVQLLLAYDESPLFCESESTHKSYRKSLPFSLRAP”, the protein production entry is “failed”.

As to “MMRLLGILFILLSSSFNVYAQLPQVSAGSIERLTSFPSAFVPPRNIDIWLPAGYDKQQRYAVLYMHDGQMLFDATTSWNKQEWQIDEVASRLIKAGKTQPFIVVGIDNAGENRHSEYFPQQPFENLSQAQQTALYQLQRTKNQALFSQQVYSDRYLKFLVTELKPYIDSHYSVYTDAAHTFVMGSSMGGLISLYAISEYPHIFGGAACLSTHWPGTFEQQNNPIPPAFFNYMQQKLPDPSTHKLYFDHGTATLDAWYPQLQAKADKIIEAKGYTSQNWQSLIFEGAEHSEHAWAARLDIPLIFLLA”, the protein production result was “failed”.

On to “MGEIRNYIKLILIGVAILVTVTMIISATGCDILPPPASAIKPPQYINASSGEVEDPKAIARRFLTPGTYFSYPTHPRNADAVWEVDIDGDGRAELLTLYRGRDLKNNGVEVFGVFILKQDENHEWQIFWEQQYTANIVALDWADVRDITGDNYPELLIGWNIGYRIGSNLDIYSLKEEDKPRLISSIKYSEIVGIEDRRGINNEIKPVLMMYLFDEEMYESENEGRKDEYFHILQWDYKEWMGGGLVEADDFYASYYVNVIEDLKESLERYSNNYYQWYILALAQLRSGKPMDALESVGKVLEITQRYINRHGERTVKEVFKYQKKARILKAAAYIKMGKYHESIIESNYVLGNYDIDDKELAQIYLNLGYAYAGLKQYEMAGTYFNKSCETAETVYKEGTALYLLNSYKAKKQLEYIKPFLTSSH”, for which the protein production result is given as “failed”.

“MEIKPVSPEIVSDKLTKVILVFYKTISEIIYPLAILGYCISVILIITGSCFHSRTVMKMGIVNFCVITLVLISYFFMPSFIGILKSIETILR”: the protein production entry is listed as “failed”.
